Test results as given in patent US7265263B1, “Potato transcription factors, methods of use thereof, and a method for enhancing tuber development” (Iowa State University Research Foundation, Inc., priority 2002, dated 2007).

T1: GAD protein alone (UniProt P04386 768-881, limits assumed)
T1 construct: Control of the immunoprecipitation
T1 sequence (looked up): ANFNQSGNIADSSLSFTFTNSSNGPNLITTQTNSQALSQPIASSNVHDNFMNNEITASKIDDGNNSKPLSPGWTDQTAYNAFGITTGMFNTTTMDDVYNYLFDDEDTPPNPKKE

T2: GAD:POTH1 fusion protein (Solanum tuberosum)
T2 construct: 35S-methionine labelled, made by in vitro transcription/translation for the immunoprecipitation; also called POTH1:GAD
T2 chain: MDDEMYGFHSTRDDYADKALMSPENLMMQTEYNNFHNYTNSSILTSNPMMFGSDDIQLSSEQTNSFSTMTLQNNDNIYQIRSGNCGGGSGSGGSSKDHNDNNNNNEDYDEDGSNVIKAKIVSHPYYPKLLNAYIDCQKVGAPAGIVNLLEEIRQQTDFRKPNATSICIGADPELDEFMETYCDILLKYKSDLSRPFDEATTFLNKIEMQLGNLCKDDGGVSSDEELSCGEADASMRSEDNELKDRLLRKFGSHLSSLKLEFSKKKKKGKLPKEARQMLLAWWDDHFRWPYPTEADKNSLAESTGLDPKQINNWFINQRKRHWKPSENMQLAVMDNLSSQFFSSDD

T3: StBEL-05 protein from pGEM11Z (in vitro transcription/translation) (Solanum tuberosum)
T3 construct: 35S-methionine labelled prey; also called p11Z-5
T3 chain: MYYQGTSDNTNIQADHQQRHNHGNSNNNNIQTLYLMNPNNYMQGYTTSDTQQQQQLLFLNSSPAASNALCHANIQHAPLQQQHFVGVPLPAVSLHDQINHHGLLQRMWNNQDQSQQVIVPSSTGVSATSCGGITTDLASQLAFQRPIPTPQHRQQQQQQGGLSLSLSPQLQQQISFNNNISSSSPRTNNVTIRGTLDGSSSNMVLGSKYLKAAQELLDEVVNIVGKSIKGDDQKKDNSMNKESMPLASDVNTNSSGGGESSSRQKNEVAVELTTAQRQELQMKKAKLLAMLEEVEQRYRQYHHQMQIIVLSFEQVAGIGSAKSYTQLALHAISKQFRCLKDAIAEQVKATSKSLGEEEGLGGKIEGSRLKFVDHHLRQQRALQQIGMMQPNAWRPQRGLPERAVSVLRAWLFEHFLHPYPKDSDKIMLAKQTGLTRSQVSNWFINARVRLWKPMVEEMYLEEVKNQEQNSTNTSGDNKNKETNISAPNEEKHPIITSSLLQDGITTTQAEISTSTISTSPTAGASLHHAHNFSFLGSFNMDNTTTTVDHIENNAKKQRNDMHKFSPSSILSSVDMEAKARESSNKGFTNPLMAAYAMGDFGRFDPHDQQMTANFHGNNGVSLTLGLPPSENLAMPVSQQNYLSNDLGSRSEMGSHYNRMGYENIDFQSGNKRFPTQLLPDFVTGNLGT

B1: StBEL-30 protein from pGEM11Z (in vitro transcription/translation) (other)
chain: MATYFPSPNNQRDADQTFQYFRQSLPESYSEASNAPENMMVFMNYSSSGAYSDMLTGTSQQQHNCIDIPSIGATPFNTSQQEILSNLGGSQMGIQDFSSWRDSRNEMLADNVFQVAQNVQGQGLSLSLGSNIPSGIGISHVQSQNPNQGGGFNMSFGDGDNSQPKEQRNADYFPPDNPGRDLDAMKGYNSPYGTSSIARTIPSSKYLKAAQYLLDEVVSVRKAIKEQNSKKELTKDSRESDVDSKNISSDTPANGGSNPHESKNNQSELSPTEKQEVQNKLAKLLSMLDEIDRRYRQYYHQMQIVVSSFDVVAGEGAAKPYTALALQTISRHFRCLRDAICDQIRASRRSLGEQDASENSKAIGISRLRFVDHHIRQQRALQQLGMMQQHAWRPQRGLPESSVSVLRAWLFEHFLHPYPKDSDKIMLARQTGLTRSQVSNWFINARVRLWKPMVEEMYKEEAGDAKIDSNSSSDVAPRLATKDSKVEERGELHQNAASEFEQYNSGQILESKSNHEADVEMEGASNAETQSQSGMENQTGEPLPAMDNCTLFQDAFVQSNDRFSEFGSFGSGNVLPNGVSLTLGLQQGEGSNLPMSIETHVSYVPLRADDMYSTAPTTMVPETAEFNCLDSGNRQQPFWLLPSAT
notes: 35S-methionine labelled prey; also called p11Z-30
B2: StBEL-13 protein from pGEM11Z (in vitro transcription/translation) (other)
chain: MVMGGGASSQQLGYAKNHTPNVAESMQLFLMNPQPRSPSPSPPNSTSSTLHMLLPNPSSTSTLQGFPNPAEGSFGQFITWGNGGASAATATHHLNAQNEIGGVNVVESQGLSLSLSSSLQHKAEELQMSGEAGGMMFFNQGGSSTSGQYRYKNLNMGGSGVSPNIHQVHVGYGSSLGVVNVLRNSKYAKAAQELLEEFCSVGRGKLKKTNNKAAANNPNTNPSGANNEASSKDVPTLSAADRIEHQRRKVKLLSMVDEVDRRYNHYCEQMQMVVNSFDLVMGFGTAVPYTALAQKAMSRHFRCLKDAIGAQLKQSCELLGEKDAGNSGLTKGETPRLKMLEQSLRQQRAFHQMGMMEQEAWRPQRGLPERSVNILRAWLFEHFLHPYPSDADKHLLARQTGLSRNQVSNWFINARVRLWKPMVEDMYQQEAKDEDGDGDEKSQSQNSGNNIIAQTPTPNSLTNTSSTNMTTTTAPTTTTALAAAETGTAATPITVTSSKRSQINATDSDPSLVAINSFSENQATFPTNIHDPDDCRRGNLSGDDGTTTHDHMGSTMIRFGTTAGDVSLTLGLRHAGNLPENTHFFG
notes: 35S-methionine labelled prey; also called p11Z-13
B3: pAD5-1 (StBEL-05 deletion construct in pGAD) (other, not shown: small tags and cut ends)
chain: KNEVAVELTTAQRQELQMKKAKLLAMLEEVEQRYRQYHHQMQIIVLSFEQVAGIGSAKSYTQLALHAISKQFRCLKDAIAEQVKATSKSLGEEEGLGGKIEGSRLKFVDHHLRQQRALQQIGMMQPNAWRPQRGLPERAVSVLRAWLFEHFLHPYPKDSDKIMLAKQTGLTRSQVSNWFINARVRLWKPMVEEMYLEEVKNQEQNSTNTSGDNKNKETNISAPNEEKHPIITSSLLQDGITTTQAEISTSTISTSPTAGASLHHAHNFSFLGSFNMDNTTTTVDHIENNAKKQRNDMHKFSPSSILSSVDMEAKARESSNKGFTNPLMAAYAMGDFGRFDPHDQQMTANFHGNNGVSLTLGLPPSENLAMPVSQQNYLSNDLGSRSEMGSHYNRMGYENIDFQSGNKRFPTQLLPDFVTGNLGT
notes: Lacks the SKY box; residues converted from pAD-05 numbering
B4: pBHD9 construct as used in the in vitro binding protocol (other)
chain: MDDEMYGFHSTRDDYADKALMSPENLMMQTEYNNFHNYTNSSILTSNPMMFGSDDIQLSSEQTNSFSTMTLQNNDNIYQIRSGNCGGGSGSGGSSKDHNDNNNNNEDYDEDGSN

Legend:
POTH1 [1] = assay: Yeast two-hybrid interaction with POTH1; assay type: binding, Solanum tuberosum; settings: nutritional selection and lacZ activation, yeast AH109
Excerpt: (§1) The Matchmaker two-hybrid system (Clontech, Calif.) was used for the yeast two-hybrid screen. Yeast transformation and plasmid rescue into DH5-α E. coli cells were according to the manufacturer's instructions. Full-length POTH1 was cloned into the pBridge (Clontech, Calif.) vector and used as bait to screen the potato (S. tuberosum ‘Desireé’) stolon cDNA library in pAD-GAL4-2.1 (Stratagene, Calif.). Positive interactions were confirmed by cotransforming yeast strain AH109 with each purified pAD plasmid and pBridge: POTH1 and plating on -leucine/-tryptophan (transformation control) and -leucine/-tryptophan/-histidine/-adenine (selection) nutrient medium. Induction of the AH109 reporter gene, lacZ, was measured with a yeast β-galactosidase assay kit (Pierce Chemicals). β-galactosidase activity (FIG. 9B) was determined from a known density of yeast cells and calculated as 1000×OD420/time of color reaction (minutes)×volume of yeast culture (ml)×OD600.
The StBEL-05 deletion constructs were amplified by PCR, then cloned into the vector, pGAD, in-frame with the GAL4 activation domain. POTH1 deletion constructs were amplified by PCR, and cloned into pBridge (Clontech) in-frame with the GAL4 binding domain. Sequencing of selected cDNAs and constructs was performed at the Iowa State University DNA Facility. For deletion analysis, modified constructs of POTH1 were cloned into the pBridge vector for fusion with the DNA-binding domain of GAL4 (FIG. 10A). For StBEL-05, constructs were cloned into the pGAD vector for fusion with the activating domain of GAL4 (FIG. 10B). Deletion constructs were made from both the amino and carboxy termini. These mutants were then tested for interaction in the yeast two-hybrid system by cotransforming into yeast strain AH109 with the corresponding full-length partner (StBEL-05 in pGAL4 or POTH1 in pBridge). All constructs were sequenced to verify that they were in-frame. Positive interactions were verified for lacZ induction by using a β-galactosidase assay (Pierce Chemical Company). For POTH1, seven deletion constructs were tested (FIG. 10A). For the BEL TFs, a fusion construct of StBEL-05 (653 aa of StBEL-05 sequence) and nine deletion constructs were tested (FIG. 10B).

POTH1 [2] = assay: In vitro binding assay (immunoprecipitation) with POTH1; parameters: species or system Solanum tuberosum; settings: in vitro transcription/translation, anti-GAD
Description: In vitro binding experiments were performed as described by Ni et al., “PIF3, a Phytochrome-Interacting Factor Necessary for Normal Photoinduced Signal Transduction, is a Novel Basic Helix-Loop-Helix Protein,” Cell 95:657-667 (1998), which is hereby incorporated by reference in its entirety. The full-length sequence for POTH1 was cloned into a pET17b/GAD fusion cassette and transcribed under the control of the T7 promoter. […] Each 50 μl TnT reaction contained 2.0 μg of template plasmid DNA and 20 μmol (20 μCi) of labeled ^35S-methionine. The POTH1:GAD/BEL complex was immunoprecipitated with anti-GAD antibodies (Santa Cruz Biotechnology, Calif.). The proteins from the pellet (one-half the fraction) and for the prey (one-fourth of the reaction volume) were resolved on a 10% SDS-PAGE gel and visualized by autoradiography.

GAD protein alone = molecular target: T1, GAD protein alone; assay: in vitro translated 35S-labelled proteins, immunoprecipitation with anti-GAD antibodies
Description: (§2) In vitro binding experiments were performed as described by Ni et al., "PIF3, a Phytochrome-Interacting Factor Necessary for Normal Photoinduced Signal Transduction, is a Novel Basic *Helix*-Loop-Helix Protein," *Cell* 95:657-667 (1998), which is hereby incorporated by reference in its entirety. The full-length sequence for POTH1 was cloned into a pET17b/GAD fusion cassette and transcribed under the control of the T7 promoter. The BEL cDNAs were cloned into pGEM11Z vectors and were transcribed under the control of the T7 promoter. ^35S-methionine labeled bait and prey proteins were synthesized using the TnT in vitro transcription-translation kit (Promega) according to the manufacturer's protocols. Each 50 μl TnT reaction contained 2.0 μg of template plasmid DNA and 20 μmol (20 μCi) of labeled ^35S-methionine. The POTH1:GAD/BEL complex was immunoprecipitated with anti-GAD antibodies (Santa Cruz Biotechnology, Calif.). The proteins from the pellet (one-half the fraction) and for the prey (one-fourth of the reaction volume) were resolved on a 10% SDS-PAGE gel and visualized by autoradiography.

GAD:POTH1 fusion protein [3] = molecular target: T2, GAD:POTH1 fusion protein; assay: in vitro translated 35S-labelled proteins, co-immunoprecipitation with anti-GAD antibodies, SDS-PAGE autoradiography
Description: as §2

GAD:POTH1 fusion protein [4] = molecular target: T2, GAD:POTH1 fusion protein; assay: in vitro transcription/translation, immunoprecipitation assay
Description: as §2

[5] = molecular target: T4, POTH1 in pBridge (full-length POTH1 fused with the GAL4 DNA-binding domain) (Solanum tuberosum); assay: quantitative yeast two-hybrid beta-galactosidase assay
T4 construct: Bait of the yeast two-hybrid screen and partner of the StBEL-05 deletion constructs; also called pBHD; pBridge:POTH1
Excerpt: as §1, with “*E. coli*” for “E. coli”, “(*S. tuberosum* 'Desireé')” for “(S. tuberosum ‘Desireé’)”, “1000 ×OD420/time” for “1000×OD420/time”, “(ml)×$OD600$.” for “(ml)×OD600.”
The StBEL-05 deletion constructs were amplified by PCR, then cloned into the vector, pGAD, in-frame with the GAL4 activation domain. POTH1 deletion constructs were amplified by PCR, and cloned into pBridge (Clontech) in-frame with the GAL4 binding domain. Sequencing of selected cDNAs and constructs was performed at the Iowa State University DNA Facility. […]

[6] = molecular target: T3, StBEL-05 protein from pGEM11Z (in vitro …); assay: in vitro binding protocol (pull-down)
Description: as §2

Molecule	interaction with POTH1 (POTH1 [1])	pull-down by POTH1 in immunoprecipitation (POTH1 [2])	binding result (GAD protein alone)	binding result (GAD:POTH1 fusion protein [3])	binding result (GAD:POTH1 fusion protein [4])	decrease in the induction of the lacZ marker (beta-galactosidase activity) relative to the full-length construct, StBEL-05 [5]	binding result [6]
B1	showed selective interaction	pulled down	no binding	binds	–	–	–
B2	showed selective interaction	pulled down	no binding	–	binds	–	–
B3	–	–	–	–	–	55%	–
B4	–	–	–	–	–	–	no binding
